T1: FcγRIIb extracellular domain with C-terminal His tag (human, UniProt P31994 43-217)
T1 construct: extracellular domain; Expressed in FreeStyle293 cells; analyte in the SPR assay; also called FcgRIIb; 2b
T1 sequence (looked up): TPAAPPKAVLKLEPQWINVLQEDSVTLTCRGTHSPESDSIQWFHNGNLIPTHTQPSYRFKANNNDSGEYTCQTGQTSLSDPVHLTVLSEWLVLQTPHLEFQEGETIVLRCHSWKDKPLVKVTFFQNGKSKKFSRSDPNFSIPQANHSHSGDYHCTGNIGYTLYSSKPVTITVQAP

T2: FcγRIIa R (FcγRIIa allotype with Arg at position 131), extracellular domain with C-terminal His tag (human, UniProt P12318 34-217)
T2 construct: extracellular domain; made in FreeStyle293 cells; analyte in the Biacore assay; also called FcγRIIa type R; 2aR
T2 sequence (looked up): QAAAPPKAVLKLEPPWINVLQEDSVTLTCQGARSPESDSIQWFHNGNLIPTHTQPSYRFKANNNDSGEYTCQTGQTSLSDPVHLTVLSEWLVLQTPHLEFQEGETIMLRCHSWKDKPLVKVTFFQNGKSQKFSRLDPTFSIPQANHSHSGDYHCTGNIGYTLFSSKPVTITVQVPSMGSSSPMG

B1: GpH7-A5/GpH7-B3 variant L234_14T/GpL16-k0 (He Ab) (antibody, human IgG1, kappa)
heavy 1: not shown
heavy 2: not shown
light: DIVMTQSPLSLPVTPGEPASISCQASESLVHSNRNTYLHWYLQKPGQSPQLLIYKVSNRFSGVPDRFSGSGSGTDFTLKISRVEAEDVGVYYCSQNTHVPPTFGQGTKVEIERTVAAPSVFIFPPSDEQLKSGTASVVCLLNNFYPREAKVQWKVDNALQSGNSQESVTEQDSKDSTYSLSSTLTLSKADYEKHKVYACEVTHQGLSSPVTKSFNRGEC
notes: He Ab: mutation in one H chain only
B2: GpH7-A5/GpH7-B3 variant L235_18N/GpL16-k0 (He Ab) (antibody, human IgG1, kappa)
heavy 1: not shown
heavy 2: not shown
light: DIVMTQSPLSLPVTPGEPASISCQASESLVHSNRNTYLHWYLQKPGQSPQLLIYKVSNRFSGVPDRFSGSGSGTDFTLKISRVEAEDVGVYYCSQNTHVPPTFGQGTKVEIERTVAAPSVFIFPPSDEQLKSGTASVVCLLNNFYPREAKVQWKVDNALQSGNSQESVTEQDSKDSTYSLSSTLTLSKADYEKHKVYACEVTHQGLSSPVTKSFNRGEC
notes: as for B1
B3: GpH7-A5/GpH7-B3 variant L234_16H/GpL16-k0 (He Ab) (antibody, human IgG1, kappa)
heavy 1: not shown
heavy 2: not shown
light: DIVMTQSPLSLPVTPGEPASISCQASESLVHSNRNTYLHWYLQKPGQSPQLLIYKVSNRFSGVPDRFSGSGSGTDFTLKISRVEAEDVGVYYCSQNTHVPPTFGQGTKVEIERTVAAPSVFIFPPSDEQLKSGTASVVCLLNNFYPREAKVQWKVDNALQSGNSQESVTEQDSKDSTYSLSSTLTLSKADYEKHKVYACEVTHQGLSSPVTKSFNRGEC
notes: as for B1
B4: GpH7-A5/GpH7-B3 variant L235_11K/GpL16-k0 (He Ab) (antibody, human IgG1, kappa)
heavy 1: not shown
heavy 2: not shown
light: DIVMTQSPLSLPVTPGEPASISCQASESLVHSNRNTYLHWYLQKPGQSPQLLIYKVSNRFSGVPDRFSGSGSGTDFTLKISRVEAEDVGVYYCSQNTHVPPTFGQGTKVEIERTVAAPSVFIFPPSDEQLKSGTASVVCLLNNFYPREAKVQWKVDNALQSGNSQESVTEQDSKDSTYSLSSTLTLSKADYEKHKVYACEVTHQGLSSPVTKSFNRGEC
notes: as for B1
B5: GpH7-A5/GpH7-B3 variant L235_03V/GpL16-k0 (He Ab) (antibody, human IgG1, kappa)
heavy 1: not shown
heavy 2: not shown
light: DIVMTQSPLSLPVTPGEPASISCQASESLVHSNRNTYLHWYLQKPGQSPQLLIYKVSNRFSGVPDRFSGSGSGTDFTLKISRVEAEDVGVYYCSQNTHVPPTFGQGTKVEIERTVAAPSVFIFPPSDEQLKSGTASVVCLLNNFYPREAKVQWKVDNALQSGNSQESVTEQDSKDSTYSLSSTLTLSKADYEKHKVYACEVTHQGLSSPVTKSFNRGEC
notes: as for B1
B6: GpH7-A5/GpH7-B3 variant L235_02A/GpL16-k0 (He Ab) (antibody, human IgG1, kappa)
heavy 1: not shown
heavy 2: not shown
light: DIVMTQSPLSLPVTPGEPASISCQASESLVHSNRNTYLHWYLQKPGQSPQLLIYKVSNRFSGVPDRFSGSGSGTDFTLKISRVEAEDVGVYYCSQNTHVPPTFGQGTKVEIERTVAAPSVFIFPPSDEQLKSGTASVVCLLNNFYPREAKVQWKVDNALQSGNSQESVTEQDSKDSTYSLSSTLTLSKADYEKHKVYACEVTHQGLSSPVTKSFNRGEC
notes: as for B1
B7: GpH7-A5/GpH7-B3 variant L235_14T/GpL16-k0 (He Ab) (antibody, human IgG1, kappa)
heavy 1: not shown
heavy 2: not shown
light: DIVMTQSPLSLPVTPGEPASISCQASESLVHSNRNTYLHWYLQKPGQSPQLLIYKVSNRFSGVPDRFSGSGSGTDFTLKISRVEAEDVGVYYCSQNTHVPPTFGQGTKVEIERTVAAPSVFIFPPSDEQLKSGTASVVCLLNNFYPREAKVQWKVDNALQSGNSQESVTEQDSKDSTYSLSSTLTLSKADYEKHKVYACEVTHQGLSSPVTKSFNRGEC
notes: as for B1
B8: GpH7-A5/GpH7-B3 variant L235_12R/GpL16-k0 (antibody, human IgG1, kappa)
heavy 1: not shown
heavy 2: not shown
light: DIVMTQSPLSLPVTPGEPASISCQASESLVHSNRNTYLHWYLQKPGQSPQLLIYKVSNRFSGVPDRFSGSGSGTDFTLKISRVEAEDVGVYYCSQNTHVPPTFGQGTKVEIERTVAAPSVFIFPPSDEQLKSGTASVVCLLNNFYPREAKVQWKVDNALQSGNSQESVTEQDSKDSTYSLSSTLTLSKADYEKHKVYACEVTHQGLSSPVTKSFNRGEC
notes: heterodimerized IgG1, mutation in one H chain only; also called He Ab
B9: GpH7-A5/GpH7-B3 variant L235_05P/GpL16-k0 (He Ab) (antibody, human IgG1, kappa)
heavy 1: not shown
heavy 2: not shown
light: DIVMTQSPLSLPVTPGEPASISCQASESLVHSNRNTYLHWYLQKPGQSPQLLIYKVSNRFSGVPDRFSGSGSGTDFTLKISRVEAEDVGVYYCSQNTHVPPTFGQGTKVEIERTVAAPSVFIFPPSDEQLKSGTASVVCLLNNFYPREAKVQWKVDNALQSGNSQESVTEQDSKDSTYSLSSTLTLSKADYEKHKVYACEVTHQGLSSPVTKSFNRGEC
notes: as for B1
B10: GpH7-A5/GpH7-B3 variant L235_06M/GpL16-k0 (He Ab) (antibody, human IgG1, kappa)
heavy 1: not shown
heavy 2: not shown
light: DIVMTQSPLSLPVTPGEPASISCQASESLVHSNRNTYLHWYLQKPGQSPQLLIYKVSNRFSGVPDRFSGSGSGTDFTLKISRVEAEDVGVYYCSQNTHVPPTFGQGTKVEIERTVAAPSVFIFPPSDEQLKSGTASVVCLLNNFYPREAKVQWKVDNALQSGNSQESVTEQDSKDSTYSLSSTLTLSKADYEKHKVYACEVTHQGLSSPVTKSFNRGEC
notes: as for B1
B11: GpH7-A5/GpH7-B3 variant L234_19Q/GpL16-k0 (He Ab) (antibody, human IgG1, kappa)
heavy 1: not shown
heavy 2: not shown
light: DIVMTQSPLSLPVTPGEPASISCQASESLVHSNRNTYLHWYLQKPGQSPQLLIYKVSNRFSGVPDRFSGSGSGTDFTLKISRVEAEDVGVYYCSQNTHVPPTFGQGTKVEIERTVAAPSVFIFPPSDEQLKSGTASVVCLLNNFYPREAKVQWKVDNALQSGNSQESVTEQDSKDSTYSLSSTLTLSKADYEKHKVYACEVTHQGLSSPVTKSFNRGEC
notes: as for B1
B12: GpH7-A5/GpH7-B3 variant L235_19Q/GpL16-k0 (He Ab) (antibody, human IgG1, kappa)
heavy 1: not shown
heavy 2: not shown
light: DIVMTQSPLSLPVTPGEPASISCQASESLVHSNRNTYLHWYLQKPGQSPQLLIYKVSNRFSGVPDRFSGSGSGTDFTLKISRVEAEDVGVYYCSQNTHVPPTFGQGTKVEIERTVAAPSVFIFPPSDEQLKSGTASVVCLLNNFYPREAKVQWKVDNALQSGNSQESVTEQDSKDSTYSLSSTLTLSKADYEKHKVYACEVTHQGLSSPVTKSFNRGEC
notes: as for B1
B13: GpH7-A5/GpH7-B3 variant L235_01G/GpL16-k0 (He Ab) (antibody, human IgG1, kappa)
heavy 1: not shown
heavy 2: not shown
light: DIVMTQSPLSLPVTPGEPASISCQASESLVHSNRNTYLHWYLQKPGQSPQLLIYKVSNRFSGVPDRFSGSGSGTDFTLKISRVEAEDVGVYYCSQNTHVPPTFGQGTKVEIERTVAAPSVFIFPPSDEQLKSGTASVVCLLNNFYPREAKVQWKVDNALQSGNSQESVTEQDSKDSTYSLSSTLTLSKADYEKHKVYACEVTHQGLSSPVTKSFNRGEC
notes: as for B1
B14: GpH7-A5/GpH7-B3 variant L235_13S/GpL16-k0 (He Ab) (antibody, human IgG1, kappa)
heavy 1: not shown
heavy 2: not shown
light: DIVMTQSPLSLPVTPGEPASISCQASESLVHSNRNTYLHWYLQKPGQSPQLLIYKVSNRFSGVPDRFSGSGSGTDFTLKISRVEAEDVGVYYCSQNTHVPPTFGQGTKVEIERTVAAPSVFIFPPSDEQLKSGTASVVCLLNNFYPREAKVQWKVDNALQSGNSQESVTEQDSKDSTYSLSSTLTLSKADYEKHKVYACEVTHQGLSSPVTKSFNRGEC
notes: as for B1

Legend:
[1] = biological target: T3, FcγRIa extracellular domain with C-terminal His tag (human, UniProt P12314 16-292); experiment: SPR (Biacore), relative binding, HeCon Ab = 100
T3 construct: extracellular domain; Expressed in FreeStyle293 cells; analyte in the SPR assay; also called FcgRI; 1a

[2] = biological target: T1, FcγRIIb extracellular domain with …; experiment: SPR (Biacore), relative binding, HeCon Ab = 100
[3] = biological target: T3, FcγRIa extracellular domain with …; experiment: SPR (Biacore); He/Con_1a divided by He/Con_2b (FcγRIa against FcγRIIb)
[4] = biological target: T2, FcγRIIa R (FcγRIIa allotype with Arg at …); experiment: SPR (Biacore), antibody captured, FcγR analyte; vs GpH7-A5/GpH7-B3/GpL16-k0 = 100
[5] = biological target: T2, FcγRIIa R (FcγRIIa allotype with Arg at …); experiment: SPR (Biacore); He/Con_2aR divided by He/Con_2b, binding to FcγRIIa R against binding to FcγRIIb
Procedure: The heterodimerized antibodies He Abs in which one of the H chains was introduced with an alteration were assayed for their binding activities to each activating FcγR and inhibitory FcγR according to the method described in Example 4. […] The activating FcγRs in FIGS. 26, 27, 28, and 29 are FcγRIa, FcγRIIa (R), FcγRIIa (H), and FcγRIIIa, respectively.
Analysis of interaction between objective antibody and the FcγR was carried out using Biacore T100 (GE Healthcare). HBS-EP+ (GE Healthcare) was used as the running buffer, and the measurement temperature was set to 25° C. Chips produced by immobilizing the antigen peptide by the amine coupling method to a Series S Sencor Chip CM5 (GE Healthcare), or alternatively, chips produced by allowing preliminarily biotinylated antigen peptides to interact with and immobilize onto a Series S Sensor Chip SA (certified) (GE Healthcare) were used. Antibodies of interest were captured onto an antigen peptide-immobilized chip, and allowed to interact to each FcγR diluted with running buffer. To regenerate and repeatedly use the chip, the antibodies captured on the chip were washed off by reacting 10 mM glycine-HCl, pH 1.5.

T3 sequence (P12314 16-292): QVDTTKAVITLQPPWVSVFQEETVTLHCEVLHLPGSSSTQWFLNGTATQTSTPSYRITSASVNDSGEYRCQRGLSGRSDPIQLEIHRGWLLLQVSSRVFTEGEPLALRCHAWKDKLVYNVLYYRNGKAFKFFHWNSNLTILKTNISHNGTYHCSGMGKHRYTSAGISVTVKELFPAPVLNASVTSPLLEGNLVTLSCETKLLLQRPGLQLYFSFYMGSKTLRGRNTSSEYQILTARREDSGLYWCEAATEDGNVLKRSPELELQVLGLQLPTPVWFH

Row | Binder | He/Con_1a [1] | He/Con_2b [2] | He_1a/2b (Ia/IIb) [3] | He/Con_2aR [4] | He_2aR/2b (IIaR/IIb) [5]
1 | B1 | 98.6 % of HeCon Ab (=100) | 62.5 % of HeCon Ab (=100) | 1.58 ratio |  | 
2 | B2 | 92.2 % of HeCon Ab (=100) | 54.9 % of HeCon Ab (=100) | 1.68 ratio |  | 
3 | B3 | 94 % of HeCon Ab (=100) | 59.4 % of HeCon Ab (=100) | 1.58 ratio |  | 
4 | B4 | 79.9 % of HeCon Ab (=100) | 6.3 % of HeCon Ab (=100) | 12.7 ratio |  | 
5 | B5 | 94.7 % of HeCon Ab (=100) | 66.4 % of HeCon Ab (=100) | 1.43 ratio |  | 
6 | B6 | 92.2 % of HeCon Ab (=100) | 63 % of HeCon Ab (=100) | 1.46 ratio |  | 
7 | B7 | 88.7 % of HeCon Ab (=100) | 46.8 % of HeCon Ab (=100) | 1.9 ratio |  | 
8 | B8 |  |  |  | 16.2 relative (HeCon Ab = 100) | 1.69 ratio
9 | B9 | 94.7 % of HeCon Ab (=100) | 54.7 % of HeCon Ab (=100) | 1.73 ratio |  | 
10 | B10 | 98 % of HeCon Ab (=100) | 81 % of HeCon Ab (=100) | 1.21 ratio |  | 
11 | B11 | 95.7 % of HeCon Ab (=100) | 60.3 % of HeCon Ab (=100) | 1.59 ratio |  | 
12 | B12 | 94 % of HeCon Ab (=100) | 42.6 % of HeCon Ab (=100) | 2.21 ratio |  | 
13 | B13 | 87.2 % of HeCon Ab (=100) | 35.4 % of HeCon Ab (=100) | 2.46 ratio |  | 
14 | B14 | 90.5 % of HeCon Ab (=100) | 48.2 % of HeCon Ab (=100) | 1.88 ratio |  | 

Reference: patent publication US20150344570A1 (published 2015)
